The record followed here is paper PMC6863806.

In the data set the target is ROP18 in total lysate antigen of T. gondii RH (RH Ag) (Toxoplasma gondii RH strain) (UniProt Q2PAY2). Put plainly: direct ELAA (plate-based aptamer binding). Particulars: 50 ug/mL RH Ag coated; aptamer 50-500 nM; Direct ELAA: antigen coated in carbonate pH 9.6 overnight 4 C; 1% BSA block; biotin-aptamer in PBS, 0.5% glucose, 0.1% albumin, 1 M MgCl2 (so in the source), 1 h ….
Chain of UniProt Q2PAY2 (Q2PAY2 whole entry): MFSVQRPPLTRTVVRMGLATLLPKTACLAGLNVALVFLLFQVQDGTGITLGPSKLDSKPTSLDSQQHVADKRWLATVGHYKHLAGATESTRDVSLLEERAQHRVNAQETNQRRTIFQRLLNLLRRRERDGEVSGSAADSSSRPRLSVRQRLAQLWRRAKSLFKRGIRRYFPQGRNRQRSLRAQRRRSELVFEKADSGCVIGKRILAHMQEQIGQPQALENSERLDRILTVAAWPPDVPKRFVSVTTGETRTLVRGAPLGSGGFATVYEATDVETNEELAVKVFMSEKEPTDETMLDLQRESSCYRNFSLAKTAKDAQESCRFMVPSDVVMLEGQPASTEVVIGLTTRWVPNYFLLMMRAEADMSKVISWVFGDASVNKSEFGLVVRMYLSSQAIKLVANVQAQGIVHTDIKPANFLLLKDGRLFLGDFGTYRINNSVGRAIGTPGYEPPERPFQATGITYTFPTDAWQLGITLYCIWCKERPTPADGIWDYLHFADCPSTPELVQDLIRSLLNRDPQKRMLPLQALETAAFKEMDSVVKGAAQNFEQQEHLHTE

Broadly, the Kd is the concentration at which binding is half-saturated. In the case of “CGCACCGATCCGGTGTTAATCTCGACGTCCCTTAAGTTTG [AP002]”, the equilibrium dissociation constant (Kd) stood at 97.7 nM. That is a double-digit nanomolar value.

For the sequence “TCCTGGCAGCGCTTTTGCTTGTTTGCTCTCGTACCTGTCC [AP001]”, the dissociation constant Kd was 62.7 nM.
